{"source": "paper PMC2120494", "target": "R-Ras or R-Ras(38V)", "assay": "co-IP", "data": [{"substance": "Raf-1 kinase, baculovirus-produced (from UniProt P04049 1-648) (enzyme)", "values": [{"measurement": "percent of total Raf co-immunoprecipitated", "value": "10 to 20", "unit": "%"}]}]}
